# Laboratory results reported in the domain aggregation screens of Martell et al. (2025).
# Test: soluble fraction after stress (log2 fold change); higher = more stays soluble; pooled small domains, quantitative proteomics
# Settings: stress: pH 4
# In short: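 Pooled custom libraries of small protein domains were subjected to pH 4 and measured by high-throughput quantitative proteomics. The log2 fold change in soluble amount per domain is reported, higher values meaning more remained soluble. This is used as a measure of aggregation propensity.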
row,Sequence,soluble fraction (log2)
1,HMGEQLALLERARTLLEDETLETEVQKELEMLLEDIEAARAEANATQLEDLFEELADLLFDLE,-0.193
2,HMKEIDVPNVVGASENAARKLLESYGFQVEVQWENGERVDNAVVKSYSPNGSAKSGSTVTIVLGT,-0.293
3,HMPLQYRLTVQPTPTNARVRLVNSAFTYRPGVALPPGSYIVEVSSSGYGAKRQAVQIADGDVTVPVELEKI,0.138
4,HMDKFKDVGARIREARKVQKLSQADLAERLQISTSHMSDIENGKKNIGLDIFMRLTEALQVSADWLL,-0.567
5,HMADFYEVLGVERNASSDQIKRAYRKLARELHPDVNLDPVAQNRFKEVTEAYEVLSDPNKRSNFDRG,-0.0615
6,HMNNFNVVVGKAIKNSFNTRENYITINAGKVLGIKTDMGVINDKGIVGIVEKTSKDFATIQSVLNIKS,0.22
7,HMSVPNVVGRDQVEASSLLESAGFKVSVKQSYSDSVEQGKVISQSPSGSTTVSPGSTVTITVSQ,-0.155
8,HMDLAPLQTVDIAINYAKAAELAAILKSSEGGILSDRGGVTVDERTNTLLIRDTLESIDEARKTI,-0.4
9,HMKRITAVISQKKGRDYYYIIVSYYLSNGKRVQRWIKTEFPINGNNKRKLEQKRIEVLQEWQDKLV,-0.486
10,HMPTTRPEAEAHYETHQRYHDLQIDVEGREAFKVATGSLTLVQEFDEKDDYDLSIPTPRSPAILLTT,-0.208
11,HMTNYSFIVNENFNNKRIDQVVANHYPKISRTKVNKIIKNNLLKLNGSTFNDPSAKVKLGDQIEFENL,0.00451
12,HMYSVVGKKGIVIEDINYSTGTGQIKSEGEVWSAKTNEQINIPKGTEIEIESIDGVKVIVKPL,0.221
13,HMQISYDVPNLIGKSYEEVMTDPSILGEHFTVVLGETKTDEDTDAGVILHQDPAADSKVQDEVTPITVTVS,0.0589
14,HMAVSPEEQKKRIIELFRNRNEVSFKEIFDLPTKGHFVITLLAVLDLARQQIVIMEQLENEGIIKFTKGA,-0.232
15,HMPTGRVVIPLNRLTASDVARILDEAYGRDHNFEVVKPSRLAKGIIVIGPKSEIDGIKELLAH,-0.173
16,HMVTVQEGETLSAIAARSGVSVKDLVRANEIRNPDSIQEGQVLFVP,0.165
17,HMRVDDITDTILNVLKEQGGFISVTDKSSPETINKLFGVSKKTYKKAIGAIYRKKLIIIEDDGIRLNS,-0.219
18,HMDVQPHIYLRKLDQFWPADLHSLILYTLDGRRLWSADSGNIPALPHRASSLVILEATWDNGQRTRRKQFL,-0.116
19,HMSRVSVDGEEVNFEGEIPDDPSRIYELLMGALSEQSRVVVKFFVDGKDALLDEGFPSRYQMIEAESV,-0.733
20,HMLTGNTAKLFAHLVEVMNPKEFVKINRQTVIVEAGIPRGSVGAAIAKLLETGHLIANASGAYKLT,0.0211
21,HMDLPATVPNLEGLTEVTARNKLTVAGLSLGEVKEVESDKEKGTVVGQSIAYGKRVTKGTKVDIEISSGK,0.318
22,HMNDADAHASVDAALKHLEALAETTPEVRAALELVRRGPDGRVTVDSFARVAEALREISIAVGAS,-0.632
23,HMAVGDMISKLRTAANMSQEQFAELFGVTRQSVQKWENSFSVPELEKLIKISKYFDVSLDALVLRSDARVT,-1.32
24,HMARRLELEDIPVDEVLFTASRNLVDAIEVMDPSRQAPMIQPWLKQALEWAVGALGFSKEDAVATLTSD,-0.264
25,HMDFLKSVDLSKYSKVESLILSHLSKGDFDIDDFIRSFSLGTDEVTRAIVSLEIEGIILRKGNRIFRKKS,0.0153

row,Sequence,soluble fraction (log2)
1,HMSVTDDQLRVFTNKSGTKIKAKIVEVSDDKVKLIRDDNKKFIVPINSLSEEDQDYLRDWVSNEAVEP,-0.0786
2,HMPEVYPFEVAEDDAGKRLDVFLSEEIEEFTRSFIQKLIAGGLASVNRAPARASYRVKPRDLVELQVPE,-0.158
3,HMKIKKIWFDGDYIYGMDERNNTYRQSLLWYSKLRNASAEERERYTFSTIGIHWRELDEDVSFESF,-1.78
4,HMKITADQEIETAINYFKKSIAEKGWKGVNPDEFKQMNDYLSETFGYSATIKFQKALDEQGLMVDE,-0.429
5,HMQQDVLKLKSGGNYKGEYINIESAYVLFKPEGGNATQRIKVNEIQMLKLADGTEVIFGGRVK,0.297
6,HMRTNVDISPKILEWVLSQVRNRTTNDVIETIQIWIKGEKPPTFNQVEKISKATGVPLGYFFLKTPPVED,-0.684
7,HMKKLPDDANDIIERVSSRLAQKFRFGYHTIDDMKQQAALFAWEGIYDSWDDSRPLENFLWIHVRNRLYN,0.18
8,HMEVSEGEIREKVESVFSSNPRQAYNYKQISKKLNINDKSERQIVWDVLRKLAGSGKIQEVEHGRFRARAE,-0.0385
9,HMKLHPRDQERTRAISARGERLYAVTVGDLRRRIGEMLEWFGRQIESQEPMRVAKAARRITDFFDQVEAFT,-2.15
10,HMSYYKEMIRLADSIADKAHEGQTDRNGWPYISHPRRVALGARKLVSEMASSTSPDTSLEELKAEVQIVAL,0.00833
11,HMLPKLAEEYAIMEIRGKGENLTAKLINKGGDSFMVRNGTVLQTGHRIDEITQTYVRAEINGMKDYLYFA,-1.44
12,HMYTEIDDVKDLLSKIPSVNKLTTADRGMVQAARNAYDALDEDQKLYITIADVEKFNAAVEWMEEH,-0.523
13,HMFPELTDDEQLIVSTLAKTNDMQINMLAVRTGIPVQRMSALLFSLEMKGVVKMYAGGTYHLL,-0.0499
14,HMDSPVEEWANRGLAYDPSLVTETMAKLYAKQGQIGLARKAFKRLALIYPEKSVYFAFQLKKLSNN,0.0712
15,HMHNSPSPVATTILRFLQPVRAFVGDTEDMRTFGPFLREDVAMVPASQAKNLIRSGHAVEINP,-0.173
16,HMLKEKETRALANFTNKFFGLDISEDLKPIALSELSKFKKTHKISNLEEFINSFQYDFQNEKILSLLDIFL,-0.879
17,HMGSLVKLQSAAELHQAGRSAEAVPILLEVLATNPRLVDGWEILANALEKLGRLDEALAALKKTVALSPPG,-1.23
18,HMGWQPDPLTTRERLVAELATQASNAQIAEQLHLSVRTVEGHLAHVYTKLGITTRRELPAALAGAR,-2.8e-05
19,HMIPTDPNGDLIKILYTSDQINELYARAKLNDVEDLFLDWTKNVLGESNFEETGPTKNEYLIPQ,-0.961
20,HMGAYIPSYAPVDINAATHTVVRGDTVYNISKRYHVSQEDFRAWNGMADNTLSIGQVVKVKPAGYTAPK,0.22
21,HMTNTWNNIVERNDLFFKKFTNTPFNGKIETYWPNGNLKETGIITDGKKDNLWEYYYENGNPKEVEF,-0.0781
22,HMSPPALAVQRDGSNVQISWPGAEEGWRLESSAEPSGAAWDLIAQNPTPVGGRWTVSLTEPTGRRFYRLVK,0.039
23,HMIMVAGHLQIKKGKYYMVLELKSESGERKTKWISTGLSAKGNKRKAEAMLEEARENYQSTDA,-0.0361
24,HMRNMVSVLDHIEGIGPKRRQLLYEHYGELEKIKEASVEEMAGLDGMNRPAAEAVYNFFLAQRNL,-0.308
25,HMTGLSNFEFNQIKLDLMHELTQTPLRLTDLVNRITSFENEKTITVIRFLVDEGILLLKDDTLSVAKID,-1.47

row,Sequence,soluble fraction (log2)
1,HMDKSRPVLRVGDSGDWVSKLQTALLEFGYRVAVDGVFGEHTKSAVVHFQNGRRLIADGVVGNLTWDALL,-0.968
2,HMIGKLTSSKLAAIHKMKTNELLAHFTEKGFLNINDAGKYILTQQGKDVGAEFKTSQYGGYFLWPENIE,0.0031
3,HMDELIKQVANYIINNRATINETAGAFGKSVSSIKKYINDADKLQRIDFELYQKVKEVQKIVELNGQI,-0.269
4,HMNPIEAQIEELKNKDQKTAYQALKHLLAISETRAEVSYYFDRFVALLQDPQSYVRTRGLLLIGA,0.0533
5,HMGEAAIYRINILINNLNVRSGPGTLYPRLRRADFPGEYDIFEEKNGFGRISNTKSEWVSLNTQYVQRLT,0.158
6,HMPKRYAGPDIIAIYGSDVFFRVGSGDGLMVIPVGRSMDNIEVVSVDAPRSVELMWKDGGPFTVPV,-0.218
7,HMGSVHDAATDRIREMILGGQFEPGERLRQDDLATSLGVSTMPVREALRQLQAEGLVVFYPRKGAVVAR,-0.173
8,HMVAELAEMAENKNITSAQLALAWILKQSENIIPIPGTKRIKYLNENIEAVNVDLSKEDVENIENLLRKYP,-0.65
9,HMSQSLSGWAAKDLEVKSGADASYRTVGRLPKGSKVSGKIINGYLHIEFDGSMRYVPVSGISKTE,0.156
10,HMQISDDSELIKIVDNILANSQKQIDDYHNGKTNLFGFFVGQVMKETKGKANPVKVNEILKDKL,0.102
11,HMDRIISTPMPGRVVKIPVTEGEPVAKGATVITISAMKMESEYKSPIDGIVKKIHVSEGDNINANQPLIEI,-0.112
12,HMSLGSNISRLRAEKHLSQGDLAEALDVSRQSVSKWETDGSVPDLDKLVKLSRIFGVTLDELVTGTP,0.0988
13,HMKKLTGVQKAAILMIALGPDISSSIIKRLPENMVERITYEIANMTKITAQQRNDILKEFMDMTVAQ,-0.479
14,HMEIPTPAELREKRIRMGLKQADVARMAGISQSMVARIESGSVDPRVSTLAKIVEVLQAAER,0.185
15,HMKGTLPEMITSREEVVLKFMVNGWDAKRIASELDISVLTVRKHIANIYEKLHVQSKAEIISMAHQQKWFN,-0.731
16,HMRGSRIFSGDVSPLTLPANSPFFSGYTEFKPGDVYVERSATNIAMWEWKSQPGGYTWVKTADIA,0.22
17,HMDPLASLTPREREVLSLMAQGLSNLAVAERLVVSAGAVEKHISSIFTKLDLAPSEHEHRRVLAVLRYVAG,-2.09
18,HMTESIKRDEAIRLNNGRIYTLDAAKIGTNEYEVMLFNPRTGEEIDSAKTSTEADAILQFDRLRRMYHR,-0.151
19,HMSEYIFGKNVVKEAFNNPSRIEEIYVLDKNMEFVSLAKKYHIKYTVITSSEMNKMVSGNHQGVVALVK,-0.264
20,HMSYQFKIKNNAAVEVTVSEKNNLLGSTYGDKATVAAGMEKNVTFYTDKPDVVVDTNGNFTITVHDKEIII,-0.221
21,HMLSNLYAVLGVGRRATPDEITAAFDAWNARADAGEPIDDPLWERVRYAWDVLSSPSRRDLYDSLVDDATG,-2.25
22,HMNGKPDMTPIPAGSRNNDLHAWAYGRLLNHPDNAEAIRRDLFERGQTSGLKESELETIWQSIRRQLGGD,0.126
23,HMTDSSEILEAALKEAEDAAHEVLNGTFSVQLEPQKAYIRRLQHMLIDRMNLSSTSKGKEPYRSLLVYR,-0.601
24,HMTSEVPVGSNVRIRASTLAGERDFEGTMLPPAGEGLTTLKLVNGYNLSYPSKDVLDIEFLGGAGE,-0.367
25,HMKVNQFEVEGNQRYSTEEIAKASGVSKGDNLFLVNKTETARKLLDELAYVRSVNIKRKLPDTLVITVAE,0.331
